PMC10477060

Molecular target: GST-tagged p65_(532–550) (human)
Experiment: pull-down

binding efficiency (bound fragment intensity/input fragment intensity) [%]	Substance
17	His-DNA-PKcs_(541-988) (from UniProt P78527 541-988) (domain or fragment)
99	His-DNA-PKcs_(2408-2819) (from UniProt P78527 2408-2819) (domain or fragment)
